Assays:
[1] = target: Human TIGIT (human) (UniProt Q495A1); assay: flow cytometry receptor occupancy on patients' whole blood, competitive anti-TIGIT antibody MBSA43 as detector, Q2W dosing
[2] = target: human FcγR3A (human) (UniProt P08637); assay: ELISA, FcγR3A coated on plate, anti-human IgG HRP, chemiluminescence
Sequence of human FcγR3A (human) (P08637 17-208 limits assumed): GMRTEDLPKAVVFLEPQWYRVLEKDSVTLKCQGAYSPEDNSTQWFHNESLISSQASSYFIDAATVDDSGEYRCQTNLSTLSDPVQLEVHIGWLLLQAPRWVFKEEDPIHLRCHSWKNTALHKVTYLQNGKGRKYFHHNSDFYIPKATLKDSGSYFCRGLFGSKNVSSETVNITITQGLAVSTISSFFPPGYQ

Sequence of Human TIGIT (human) (Q495A1 other isoform, or with tags, fused parts or gaps): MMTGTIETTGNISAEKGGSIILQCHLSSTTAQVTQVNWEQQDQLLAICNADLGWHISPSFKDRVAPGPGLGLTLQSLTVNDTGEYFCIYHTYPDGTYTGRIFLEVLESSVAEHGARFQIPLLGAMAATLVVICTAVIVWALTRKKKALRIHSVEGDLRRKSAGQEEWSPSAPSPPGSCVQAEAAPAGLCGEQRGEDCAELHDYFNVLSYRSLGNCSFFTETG

- receptor occupancy (RO) [1]: > 98%
- percent of the binding of human IgG1 to the same receptor [2]: 20%
Substance: domvanalimab (antibody)

Source: US20250179176A1, “ANTI-TIGIT ANTIBODIES AND USES OF THE SAME” (ARCUS BIOSCIENCES, INC., priority 2022, published 2025)
